From patent US20170320956A1 (KYMAB, published 2017)
Residue numbers refer to the chain shown, from its start.

Assays:
[1] = target: T1, recombinant human LIGHT-214K, FLAG-tagged extracellular domain (human); assay: SPR ProteOn, mAb captured on anti-mouse IgG, LIGHT 256 nM, 25 C
T1 construct: the IgK leader peptide is marked only by underlining (not visible here), so its residues were not removed; Trimer
T1 chain: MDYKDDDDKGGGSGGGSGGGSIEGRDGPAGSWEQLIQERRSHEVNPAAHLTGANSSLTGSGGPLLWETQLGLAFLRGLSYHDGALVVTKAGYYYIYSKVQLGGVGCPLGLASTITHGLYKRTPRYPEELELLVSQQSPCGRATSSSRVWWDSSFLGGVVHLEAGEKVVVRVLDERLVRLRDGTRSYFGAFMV
Description: (§1) SPR analysis was carried out using the ProteOn™ XPR36 Array System (BioRad). Anti-mouse IgG (GE Healthcare BR-1008-38) was immobilised on a GLC biosensor surface using amine coupling, the surface was then blocked using 1M ethanolamine. […] Apparent affinities for the LIGHT-antibody interaction were determined using the 1:1 model inherent to the ProteOn XPR36 analysis software. The assay was run using HBS-EP (Teknova) as running buffer and carried out at 25° C.

[2] = target: T2, recombinant human LIGHT-214E, FLAG-tagged extracellular domain (human); assay: HTRF competition, LTβR-Fc binding to Flag-hLIGHT-214E
T2 construct: Trimer; Biotinylated in some assays
T2 chain: T1 chain with K166E
Description: (§2) The following methods were carried out with a titration of inhibitor in order to establish the clone potency as measured by IC50 values in the assay. 5 μl of Flag-tagged hLIGHT (in-house) diluted to 2.5 nM final concentration (10 nM working concentration) in HTRF buffer with 5 μl of a titration of antibody purified from hybridoma supernatant diluted in HTRF assay buffer from 300 nM final (1200 nM working concentration) was pre-incubated for 1 hour at room temperature. To wells used to define total binding, 5 μl of LIGHT (10 nM working, 2.5 nM final) and 5 μl of hybridoma maintaining media (HMM,)) were added. To wells used to define non specific binding (receptor only) 10 μl of HMM was added. Total and non specific binding wells were pre-incubated for 1 hr at RT in the same plate as wells containing titration of inhibitor.
(§3) LIGHT receptor was diluted in HTRF assay buffer and added to all wells, 5 μl/well of HVEM-Fc or LTβR-Fc (R&D systems) at 1.2 nM for HVEM (0.3 nM final) and 0.4 nM for LTβR (0.1 nM final).

[3] = target: T2, recombinant human LIGHT-214E, …; assay: HTRF competition, HVEM-Fc binding to Flag-hLIGHT-214E
Description: as §2, §3

[4] = target: human LIGHT-214E, full length, expressed on the surface of CHO-S cells (human, UniProt O43557 1-240); assay: flow cytometry, CHO-S cells expressing hLIGHT-214E
mouse LIGHT = target: T3, mouse LIGHT (mouse, UniProt Q9QYH9 72-239, limits assumed); assay: SPR ProteOn, mAb captured on anti-mouse IgG
T3 construct: also called murine LIGHT
T3 sequence (looked up): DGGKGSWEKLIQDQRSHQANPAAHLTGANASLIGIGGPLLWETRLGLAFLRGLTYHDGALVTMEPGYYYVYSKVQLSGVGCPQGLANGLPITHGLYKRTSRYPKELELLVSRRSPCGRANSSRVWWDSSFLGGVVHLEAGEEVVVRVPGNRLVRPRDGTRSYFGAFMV

[5] = target: T4, recombinant cynomolgus monkey LIGHT, FLAG-tagged extracellular domain (cynomolgus (Macaca fascicularis), UniProt E9NVF7 59-240); assay: SPR ProteOn, mAb captured on anti-mouse IgG, LIGHT 256 nM, 25 C, apparent affinity
T4 construct: extracellular domain; also called cynomolgus LIGHT; cyno LIGHT
Description: as §1

[6] = target: T2, recombinant human LIGHT-214E, …; assay: as above
Description: as §1

[7] = target: T2, recombinant human LIGHT-214E, …; assay: cell-based or functional assay

binding result [1]: no binding (tested: 256 nM)
IC50 [2]: 2.53 nM
IC50 [3]: 1.28 nM
binding result [4]: binds
binding result (mouse LIGHT): no binding
Kd [5]: 2.82 nM
Kd [6]: 1.03 nM
HT29 IL-8 release, IC50 [7]: 1.42 nM
B1: 117C06 (purified from hybridoma supernatant) (antibody, V domains shown)
VH: QVQLVQSGAEVKKPGASVKVSCKASGYTFVNFGISWVRQAPGQGLEWMGWISVYSGNTNYAQKLQGRVTLTTDTSTTTAYMELRSLRSDDTAVYYCARHNWNDYWGQGTLVTVSS
VL: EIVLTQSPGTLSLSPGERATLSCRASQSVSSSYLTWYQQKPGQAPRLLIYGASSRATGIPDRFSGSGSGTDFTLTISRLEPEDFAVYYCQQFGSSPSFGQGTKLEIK
notes: Murine constant / human variable chimeric IgG, kappa, Protein G purified from hybridoma supernatant
